Experimental data from patent US20100169989A1.
Each block holds one substance with its values, some of them ahead of it.

Key:
[1] = molecular target: myostatin mature C-terminal dimer (purified from conditioned medium of CHO cells carrying a myostatin expression construct) (UniProt O14793); experiment: inhibition of labeled myostatin binding to Act RIIB-transfected COS-7 cells
[2] = molecular target: cell surface binding proteins on L6 myoblasts (GDF-8 receptor); experiment: I-125 labeled GDF-8 receptor-ligand binding assay on myoblasts

myostatin prodomain peptide (purified from the CHO cell myostatin preparation), sequence (O08689 25-267): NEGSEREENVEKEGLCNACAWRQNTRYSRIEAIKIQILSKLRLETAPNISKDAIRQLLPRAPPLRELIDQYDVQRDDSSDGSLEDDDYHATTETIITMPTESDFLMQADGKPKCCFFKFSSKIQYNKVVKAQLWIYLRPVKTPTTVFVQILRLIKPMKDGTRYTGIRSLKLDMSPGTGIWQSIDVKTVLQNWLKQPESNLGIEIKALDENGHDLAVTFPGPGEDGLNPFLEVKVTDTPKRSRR

fold of Ki against the Ki of follistatin [1]: 50 fold
Substance: myostatin prodomain peptide (purified from the CHO cell myostatin preparation)

Ki [1]: 0.47 nM
Substance: follistatin

Kd [2]: 0.37 nM
Substance: recombinant human GDF-8 (rhGDF-8) homodimer (from UniProt O14793 267-374) (ligand)
